Source: patent US20250074943A1 (Amgen, published 2025)
Blank lines part the entries; values can stand above or below the binder they belong to. Numbered stars: 1 amine (or outer) side, 2 acyl side, 3 side chain; on linkers, the order of the positions; unused ones are H or OH. Bridge positions count the residues as written; N and C are the ends. Ends that are not written are not given here. Ttds = non-peptide spacer, O=C(CCC(=O)[*:2])NCCCOCCOCCOCCCN[*:1]

Tests used:
[1] = target: T1, recombinant DLL3 ectodomain (rhDLL3-Fc) (human, UniProt Q9NYJ7 27-492, biotinylated (NHS-LC-LC-biotin) in the BLI and SPR assays); test: kinetic assay, method not told for this table (BLI, SPR or flow cytometry)
T1 construct: also called rDLL3-Fc; recombinant human DLL3 (rDLL3); not shown: Fc part
T1 sequence: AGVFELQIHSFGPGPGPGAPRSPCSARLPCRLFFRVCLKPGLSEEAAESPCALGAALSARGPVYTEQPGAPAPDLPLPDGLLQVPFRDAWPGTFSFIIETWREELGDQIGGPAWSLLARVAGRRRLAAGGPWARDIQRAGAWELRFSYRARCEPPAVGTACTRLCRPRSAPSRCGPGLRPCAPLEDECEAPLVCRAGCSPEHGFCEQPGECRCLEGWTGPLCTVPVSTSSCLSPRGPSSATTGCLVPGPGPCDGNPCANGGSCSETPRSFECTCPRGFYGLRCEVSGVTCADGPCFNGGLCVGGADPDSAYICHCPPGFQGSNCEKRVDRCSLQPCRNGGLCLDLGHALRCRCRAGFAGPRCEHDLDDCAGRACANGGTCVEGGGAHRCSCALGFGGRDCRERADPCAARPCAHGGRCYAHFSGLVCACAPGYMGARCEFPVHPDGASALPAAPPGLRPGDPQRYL

[2] = target: T2, human FLT3 expressed on CHO cells (human, UniProt P36888 27-993); test: flow cytometry, biotin-labelled PepSP1462 detected with anti-streptavidin-AF488 antibody
T2 construct: whole, on cells; Negative control cell line; also called CHO huFLT3; CHO huFTL3
Description: (§2) Peptide PepSP1462, identified herein was biotin labeled. The biotin labeled peptide was detected using an anti-streptavidin antibody conjugated to AF488. The AF488-labeled peptide was detected directly.
(§3) Binding specificity of the labeled peptide for DLL3 was assessed using DLL3-negative cell lines. […] Cells were then washed twice with FACS buffer and incubated with an anti-streptavidin antibody conjugated to AF488 (Thermo Fisher). […] Cells were then washed twice with FACS buffer an resuspended in FACS buffer that contained 0.5 μg/ml propidium iodide. Cells were analyzed by flow cytometry, using an LSR Fortessa and FACSDiva software (Becton Dickinson) or Flow Jo (Flow Jo LLC).

[3] = target: T3, rat DLL3 expressed on CHO cells (rat, UniProt O88671 33-589); test: flow cytometry, 100 µM biotin-labelled PepSP1462 detected with anti-streptavidin-AF488 antibody; CHO huFLT3 as negative control cell line
T3 construct: whole, on cells; also called CHO rtDLL3; High CHO rtDLL3
T3 sequence (looked up): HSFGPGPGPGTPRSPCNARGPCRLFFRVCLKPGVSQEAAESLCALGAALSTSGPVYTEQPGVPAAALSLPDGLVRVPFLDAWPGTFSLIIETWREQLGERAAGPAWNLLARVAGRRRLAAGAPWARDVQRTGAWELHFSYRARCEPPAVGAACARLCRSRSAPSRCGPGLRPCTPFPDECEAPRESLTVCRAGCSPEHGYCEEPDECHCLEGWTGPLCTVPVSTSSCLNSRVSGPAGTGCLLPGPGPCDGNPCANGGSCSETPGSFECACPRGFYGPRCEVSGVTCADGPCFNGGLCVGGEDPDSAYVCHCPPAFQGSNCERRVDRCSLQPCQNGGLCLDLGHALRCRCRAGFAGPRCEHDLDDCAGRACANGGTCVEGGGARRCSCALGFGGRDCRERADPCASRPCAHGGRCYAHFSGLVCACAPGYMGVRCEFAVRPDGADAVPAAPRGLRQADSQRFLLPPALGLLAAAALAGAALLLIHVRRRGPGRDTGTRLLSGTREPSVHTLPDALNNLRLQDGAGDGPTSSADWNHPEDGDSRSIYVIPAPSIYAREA
Description: as §2, §3

[4] = target: T4, mouse DLL3 expressed on CHO cells (mouse, UniProt O88516 33-592); test: as above
T4 construct: whole, on cells; also called CHO muDLL3
T4 sequence (looked up): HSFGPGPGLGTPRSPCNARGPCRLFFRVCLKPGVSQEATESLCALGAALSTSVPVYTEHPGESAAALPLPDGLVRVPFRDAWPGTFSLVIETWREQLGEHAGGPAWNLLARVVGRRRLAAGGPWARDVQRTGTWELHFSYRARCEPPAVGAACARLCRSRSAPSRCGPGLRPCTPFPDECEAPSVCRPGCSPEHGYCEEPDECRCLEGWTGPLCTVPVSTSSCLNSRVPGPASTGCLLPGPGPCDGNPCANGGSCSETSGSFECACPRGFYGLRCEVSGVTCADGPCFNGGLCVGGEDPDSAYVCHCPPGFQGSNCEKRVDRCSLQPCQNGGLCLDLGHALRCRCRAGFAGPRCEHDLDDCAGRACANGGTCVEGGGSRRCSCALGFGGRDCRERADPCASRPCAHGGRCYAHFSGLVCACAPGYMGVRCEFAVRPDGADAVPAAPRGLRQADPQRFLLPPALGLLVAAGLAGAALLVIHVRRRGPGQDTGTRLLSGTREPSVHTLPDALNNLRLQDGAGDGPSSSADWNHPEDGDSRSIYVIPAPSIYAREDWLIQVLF
Description: as §2, §3

[5] = target: T1, recombinant DLL3 ectodomain (rhDLL3-Fc); test: BLI (Octet), biotinylated rhDLL3-Fc on streptavidin sensors
Description: (§1) Binding kinetic assays were performed using Bio-layer interferometry (BLI) technology. The recombinant DLL3 ectodomain (rhDLL3-Fc) was biotinylated using EZ-Link Sulfo-NHS-LC-LC-Biotin Kit according to the manufacturer's protocol (Pierce by Thermo Fisher Scientific). The recombinant protein was incubated with an excess of NHS-LC-LC Biotin ester, in a molar ratio of 1:3 (protein: biotin), at 25° C. for 90 min. The un-reacted biotin ester was removed by subsequent buffer exchange on 0.5 ml Zeba spin desalting columns 7K MWCO (Pierce by Thermo Fisher Scientific).

[6] = target: T1, recombinant DLL3 ectodomain (rhDLL3-Fc); test: BLI (Octet), biotinylated rhDLL3-Fc on streptavidin sensors; second listing of 1161 in Table 4, rounded
Description: as §1

Binder: Ac-AETVEFWWCNGNSENWTCTWGG-{Ttds-Lys-NH2} (disulfide 9-18 (inferred)) [PepSP1324]
RT [1]: 189

Binder: AETVEFWDCWGNTDDWTCTW-NH2 (disulfide 9-18 (inferred)) [PepSP1161]
Kd [5]: 42.5 nM
RT (residence time) [5]: 87.8 s
Kd [6]: 43 nM

Binder: Ac-AETVEFWGCTGTWGNETCWWGG-{Ttds-Lys-NH2} (disulfide 9-18 (inferred)) [PepSP1321]
RT [1]: 369

The remaining lines, values ahead:

binding result [2]: no binding (tested: 100 µM)
binding result [3]: binds
binding result [4]: binds
B1: PepSP1462 labeled with biotin (peptide)
peptide: Ac-AETVEFWWCNGNSENWTCTWGG-{Ttds-K(PEG4-DBCO)-NH2}
modifications: disulfide 9-18 (inferred); also: biotin label, site of attachment not given here
notes: also called PepSP1462-biotin peptide; labeled PepSP1462 peptide

RT [1]: 199
Binder: Ac-AETVEFWWCNGNSENWTCTWGG-{Ttds-K(Ttds-Ttds)-NH2} (disulfide 9-18 (inferred), also called PspSP1342) [PepSP1342]
